# Results as given in the supplement of paper PMC9112550, “Optimization of the antimicrobial peptide Bac7 by deep mutational scanning” (BMC Biology, 2022).
# System: Escherichia coli TOP10
# Assay: shrunken log2 fold change of peptide-encoding DNA abundance (4.5 h post-induction vs induction); higher = less antimicrobial activity (less host growth inhibition)
# Conditions: time post-induction: 4.5 h; library: site-saturation at positions 5, 18, 19, 20
# 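Note: peptides expressed intracellularly from a pBAD plasmid library in pooled LB shake-flask culture, induced with 0.3% L-arabinose, DNA abundance read by NGS, three biological replicates, DESeq2 with apeglm shrinkage.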
row,Sequence,shrunken log2 fold change
1,RRIRPRPPRLPRPRPRPRHDPRP,0.186
2,RRIRIRPPRLPRPRPRPNFCPRP,-0.162
3,RRIRMRPPRLPRPRPRPDYYPRP,-0.111
4,RRIRSRPPRLPRPRPRPSCRPRP,-0.0379
5,RRIRNRPPRLPRPRPRPFKLPRP,-0.155
6,RRIRRRPPRLPRPRPRPPLCPRP,0.971
7,RRIRWRPPRLPRPRPRPTLAPRP,0.754
8,RRIRQRPPRLPRPRPRPAHMPRP,-0.267
9,RRIRPRPPRLPRPRPRPIFSPRP,0.14
10,RRIRIRPPRLPRPRPRPPRVPRP,0.278
11,RRIRCRPPRLPRPRPRPRQNPRP,0.226
12,RRIRSRPPRLPRPRPRPYKDPRP,-0.716
13,RRIRVRPPRLPRPRPRPMCRPRP,-0.0485
14,RRIRVRPPRLPRPRPRPYYFPRP,-0.777
15,RRIRNRPPRLPRPRPRPYHLPRP,0.0195
16,RRIRVRPPRLPRPRPRPIWRPRP,0.207
17,RRIRKRPPRLPRPRPRPNPAPRP,-0.000888
18,RRIRPRPPRLPRPRPRPQHSPRP,-0.161
19,RRIRHRPPRLPRPRPRPFMWPRP,-0.137
20,RRIRGRPPRLPRPRPRPIPKPRP,-0.117
21,RRIRFRPPRLPRPRPRPANYPRP,-0.43
22,RRIRTRPPRLPRPRPRPTLLPRP,0.0818
23,RRIRVRPPRLPRPRPRPTYSPRP,-0.0431
24,RRIRTRPPRLPRPRPRPQVLPRP,-0.0479
25,RRIRTRPPRLPRPRPRPWHPPRP,-0.179

row,Sequence,shrunken log2 fold change
1,RRIRTRPPRLPRPRPRPTTTPRP,0.168
2,RRIRERPPRLPRPRPRPWKMPRP,0.00355
3,RRIRWRPPRLPRPRPRPARTPRP,0.705
4,RRIRVRPPRLPRPRPRPNNCPRP,-0.0726
5,RRIRQRPPRLPRPRPRPGCTPRP,-0.269
6,RRIRTRPPRLPRPRPRPPSNPRP,-0.244
7,RRIRGRPPRLPRPRPRPWCPPRP,0.236
8,RRIRNRPPRLPRPRPRPEDKPRP,0.114
9,RRIRTRPPRLPRPRPRPRDRPRP,0.19
10,RRIRLRPPRLPRPRPRPHARPRP,0.416
11,RRIRRRPPRLPRPRPRPHYQPRP,-0.319
12,RRIRNRPPRLPRPRPRPAIDPRP,-0.0478
13,RRIRRRPPRLPRPRPRPMKPPRP,0.0733
14,RRIRFRPPRLPRPRPRPRMKPRP,-0.0673
15,RRIRARPPRLPRPRPRPSGDPRP,0.15
16,RRIRARPPRLPRPRPRPICTPRP,0.197
17,RRIRLRPPRLPRPRPRPKRQPRP,0.045
18,RRIRFRPPRLPRPRPRPKLWPRP,0.287
19,RRIRNRPPRLPRPRPRPHPRPRP,0.0824
20,RRIRMRPPRLPRPRPRPPMAPRP,0.841
21,RRIRYRPPRLPRPRPRPHYQPRP,-0.522
22,RRIRRRPPRLPRPRPRPEPYPRP,0.0302
23,RRIRFRPPRLPRPRPRPARVPRP,0.319
24,RRIRPRPPRLPRPRPRPQKMPRP,-0.201
25,RRIRVRPPRLPRPRPRPGIKPRP,0.174

row,Sequence,shrunken log2 fold change
1,RRIRQRPPRLPRPRPRPPFMPRP,0.213
2,RRIRKRPPRLPRPRPRPMAMPRP,0.325
3,RRIRVRPPRLPRPRPRPGWIPRP,0.486
4,RRIRDRPPRLPRPRPRPAHNPRP,-0.206
5,RRIRERPPRLPRPRPRPVSIPRP,-1.57
6,RRIRFRPPRLPRPRPRPSPCPRP,-0.508
7,RRIRDRPPRLPRPRPRPLVKPRP,0.0947
8,RRIRLRPPRLPRPRPRPQEMPRP,-0.0408
9,RRIRGRPPRLPRPRPRPFPRPRP,1.01
10,RRIRQRPPRLPRPRPRPGVWPRP,0.611
11,RRIRYRPPRLPRPRPRPRWCPRP,0.246
12,RRIRVRPPRLPRPRPRPPFGPRP,0.298
13,RRIRIRPPRLPRPRPRPRCDPRP,-0.0753
14,RRIRIRPPRLPRPRPRPHFIPRP,-0.564
15,RRIRSRPPRLPRPRPRPYMCPRP,-0.903
16,RRIRHRPPRLPRPRPRPIICPRP,-0.168
17,RRIRRRPPRLPRPRPRPRRPPRP,0.639
18,RRIRNRPPRLPRPRPRPDKSPRP,-0.193
19,RRIRQRPPRLPRPRPRPDWGPRP,-0.0197
20,RRIRIRPPRLPRPRPRPWRQPRP,0.0165
21,RRIRTRPPRLPRPRPRPKTCPRP,0.012
22,RRIRVRPPRLPRPRPRPSWPPRP,0.493
23,RRIRKRPPRLPRPRPRPRMHPRP,0.557
24,RRIRARPPRLPRPRPRPQHQPRP,0.698
25,RRIRSRPPRLPRPRPRPGLDPRP,0.127
